From US20130150294A1 (UNIVERSITY OF TOLEDO, published 2013)

B1: GST-SERCA-CD3 (other)
chain: GTRRMAKKNAIVRSLPSVETLGCTSVICSDKTGTLTTNQMSVCRMFILDKVEGDTCSLNEFTITGSTYAPIGEVQKDDKPVKCHQYDGLVELATICALCNDSALDYNEAKGVYEKVGEATETALTCLVEKMNVFDTELKGLSKIERANACNSVIKQLMKKEFTLEFSRDRKSMSVYCTPNKPSRTSMSKMFVKGAPEGVIDRCTHIRVGSTKVPMTPGVKQKIMSVIREWGSGSDTLRCLALATHDNPLRREEMHLEDSANFIKYETNLTFVGCVGMLDPPRIEVASSVKLCRQAGIRVIMITGDNKGTAVAICRRIGIFGQDEDVTSKAFTGREFDELSPSAQRDACLNARCFARVEPSHKSKIVEFLQSFDEITAMTGDGVNDAPALKKSEIGIAMGSGTAVAKTASEMVLADDNFSTIVAAVEEGRAIYNNMKQFIRYLISSNV
notes: also called GST-CD3 from rat heart sarcoplasmic reticulum Ca2+-ATPase 2a
B2: GST-KD1 of Src (other)
chain: LRLEVKLGQGCFGEVWMGTWNGTTRVAIKTLKPGTMSPEAFLQEAQVMKKLRHE
notes: also called GST-tagged Src truncation; not shown: glutathione S-transferase (GST) fusion tag

Assays:
[1] = target: T1, Src of LLC-PK1 cells (endogenous) (pig, UniProt K7GM45 2-548); test: GST pulldown from cell lysates, Western blot
T1 construct: Species from the cell line (pig kidney proximal LLC-PK1); also called Src from the LLC-PK1 cell lysates; Src in TCN23-19 and PY-17 cells (clones of LLC-PK1)

[2] = target: purified pig kidney Na+/K+-ATPase (PKE) (pig, UniProt P05024 6-1021; P05027 1-303); test: in vitro binding assay with GST-tagged Src truncations and purified Na+/K+-ATPase

| Binder | binding result [1] | binding result [2] |
| --- | --- | --- |
| B1 | no binding (tested: 1 mg LLC-PK1 cell lysates) |  |
| B2 |  | binds |
